Results: patent US11534461B2, “High affinity merkel cell polyomavirus T antigen-specific TCRS and uses thereof” (priority 2016, dated 2022)
Several values for one entry are separate records, joined by “and”; a condition that tells them apart may be missing. Equal entries are not always repeated.

T1: Merkel cell polyomavirus T antigen (common to large and small T antigen) peptide on HLA-A*02:01 (human)
T1 peptide: KLLEIAPNC

T2: Merkel cell polyomavirus T antigen KLL epitope homolog (C-terminal cysteine replaced by alanine) peptide on … (human)
T2 peptide: KLLEIAPNA

T3: Merkel cell polyomavirus T antigen (common to large and small T antigen) peptide on HLA-A*02:01 (human)
T3 peptide: KLLEIAPNC


Tests used:
HLA-A*02 = HLA-A*02 (Homo sapiens, UniProt P04439, D140Y/D185E/D98H/E176V/E277Q/G131W/G231S/I119V/I121R/I166T/I218V/L300P/L318F/N151K/N90K/P208A/P217A/Q86G/Q94H/R138H/R169H/T345S); assay: HLA-A*02 binding prediction (ANN, Immune Epitope Database Analysis Resource); settings: KLL epitope versus homologs of other polyomaviruses
Excerpt: Residues at positions 15, 18 and 20-22 (underlined) are highly divergent.

MCC = assay: Clinical trial: avelumab plus MCPyV-specific T cells and HLA-upregulation (NCT02584829); settings: avelumab in addition to MCPyV-specific T cells and HLA-upregulation
[1] = biological target: T1, Merkel cell polyomavirus T antigen …; assay: multimer staining
[2] = biological target: T2, Merkel cell polyomavirus T antigen KLL …; assay: IFN-g ELISA; T2 + peptide titration; T cell clone or line
[3] = biological target: T3, Merkel cell polyomavirus T antigen …; assay: multimer staining
[4] = biological target: T1, Merkel cell polyomavirus T antigen …; assay: IFN-g ELISA; COS-7 given HLA-A*02:01 and tLTAg plasmids (antigen processed); T cell clone or line
Description: IFN-γ in cell culture supernatants was assayed by ELISA according to manufacturer's recommendations (Human IFN gamma ELISA Ready-SET-Go Kit, affymetrix). […] Supernatants were assayed by ELISA as described above. […] After incubating for 24 hours, wells were transfected using FuGENE HD (Promega) at a 6:1 ratio of transfection reagent to DNA with 25 ng HLA-A*02:01 and limiting dilution of pDEST103-GFP-tLTAg (25-0.08 ng) plus irrelevant DNA (pcDNA-6/myc-His C, Gateway) to a total of 25 ng. 48 hours after transfection, 10^4 viable KLL-specific T cells in TCM were added to target wells in duplicate. […] Transfected COS-7 cells were harvested at 48 and 72 hours post-transfection to quantitate transfection efficiency by flow cytometry.

[5] = biological target: T1, Merkel cell polyomavirus T antigen …; assay: binding, other

Molecule	binding result [1]	EC50 of peptide [2]	binding result [3]	further results
KLLEIAPNC [MCPyV]	–	–	–	predicted to bind to HLA-A*02 better than homologous peptides (HLA-A*02): approximately 100 ×
avelumab	–	–	–	objective response (MCC; 5 MCC patients): 80%; duration of complete responses (MCC): > 1 year; toxicities with the addition of avelumab (MCC): no increased toxicities; complete responses (CRs) (MCC; of 5 MCC patients): 3 patients
w678 clonotype 5 (TCR) alpha TRAV38-1*01 TRAJ43*01 CDR3: CAFRVSHDMRF beta TRBV10-2*01 TRBJ2-3*01 CDR3: CASSSGNPSTDTQYF	recognises	0.11 ng/mL and 0.054 ng/mL	–	–
w876 clonotype 20 (TCR) alpha TRAV10*01 TRAJ45*01 CDR3: CVVSAGINGADGLTF beta TRBV12-4*01 TRBJ2-1*01 CDR3: CASSPWDEQFF	recognises	–	–	–
w876 clonotype 19 (TCR) alpha TRAV12-1*01 TRAJ45*01 CDR3: CVVYTGYSGGGADGLTF beta TRBV10-2*01 TRBJ2-2*01 CDR3: CASSGQNTGELFF	recognises	0.92 ng/mL	recognises	–
w678 clonotype 1 (TCR) alpha TRAV12-1*01 TRAJ43*01 CDR3: CVLNNNDMRF beta TRBV10-3*01 TRBJ2-2*01 CDR3: CAIRQFDANTGELFF	–	0.43 ng/mL and 0.5 ng/mL and 0.47 ng/mL	–	EC50 of tLTAg plasmid DNA [4]: 320 ng/mL
MCC1H (TCR, V domains shown) Valpha: QQQVKQSPQSLIVQKGGISIINCAYENTAFDYFPWYQQFPGKGPALLIAIRPDVSEKKEGRFTISFNKSAKQFSLHIMDSQPGDSATYFCAVPNTGNQFYFGTGTSLTVIP Vbeta: GAGVSQSPRYKVAKRGQDVALRCDPISGHVSLFWYQQALGQGPEFLTYFQNEAQLDKSGLPSDRFFAERPEGSVSTLKIQRTQQEDSAVYLCASSLIAGLSYEQYFGPGTRLTVT	–	–	–	binding result [5]: recognises
w830 clonotype 3 (TCR) alpha TRAV38-1*01 TRAJ34*01 CDR3: CAYPSTDKLIF beta TRBV19*01 TRBJ1-5*01 CDR3: CASSILGASNQPQHF	–	–	–	EC50 of tLTAg plasmid DNA [4]: 270000 ng/mL
w876 clonotype 18 (TCR) alpha TRAV14 TRAJ13*01 CDR3: CAMREAQSGGYQKVTF beta TRBV12-4*01 TRBJ2-3*01 CDR3: CASSFGSGTKDTQYF	recognises	–	recognises	–
X389-6 (TCR, V domains shown) Valpha: ILNVEQSPQSLHVQEGDSTNFTCSFPSSNFYALHWYRWETAKSPEALFVMTLNGDEKKKGRISATLNTKEGYSYLYIKGSQPEDSATYLCAWNTDKLIFGTGTRLQVFP Vbeta: DAGVIQSPRHEVTEMGQEVTLRCKPISGHNSLFWYRQTMMRGLELLIYFNNNVPIDDSGMPEDRFSAKMPNASFSTLKIQPSEPRDSAVYFCASSLAGDRSFGPGTRLTVT	–	–	–	binding result [5]: recognises
w876 clonotype 13 (TCR) alpha TRAV12-1*01 TRAJ45*01 CDR3: CVVTDTSGGGADGLTF beta TRBV7-2*04 TRBJ2-3*01 CDR3: CASSLAGLAGTDTQYF	–	–	–	EC50 of tLTAg plasmid DNA [4]: 3900 ng/mL
w876 clonotype 5 (TCR) alpha TRAV38-1*01 TRAJ23*01 CDR3: CAYNQGGKLIF beta TRBV10-2*01 TRBJ2-2*01 CDR3: CASSVLNTGELFF	recognises	0.11 ng/mL	recognises	–
w876 clonotype 10 (TCR) alpha TRAV12-1*01 TRAJ37*02 CDR3: CVVYGSSNTGKLIF beta TRBV10-3*01 TRBJ2-2*01 CDR3: CAIRRQDQNTGELFF	recognises	0.7 ng/mL	recognises	–
w876 clonotype 29 (TCR) alpha TRAV12-1*01 TRAJ3*01 CDR3: CVVPLYSSASKIIF beta TRBV10-2*01 TRBJ2-2*01 CDR3: CASSVLNTGELFF	–	0.12 ng/mL and 0.16 ng/mL	–	EC50 of tLTAg plasmid DNA [4]: 3300 ng/mL
X389-8 (TCR, V domains shown) Valpha: RKEVEQDPGPFNVPEGATVAFNCTYSNSASQSFFWYRQDCRKEPKLLMSVYSSGNEDGRFTAQLNRASQYISLLIRDSKLSDSATYLCVVTGTGGFKTIFGAGTRLFVKA Vbeta: GEEVAQTPKHLVRGEGQKAKLYCAPIKGHSYVFWYQQVLKNEFKFLISFQNENVFDETGMPKERFSAKCLPNSPCSLEIQATKLEDSAVYFCASSSMSIAAGNTGELFFGEGSRLTVL	–	–	–	binding result [5]: recognises
w876 clonotype 27 (TCR) alpha TRAV3*01 TRAJ11*01 CDR3: CALTGYSTLTF beta TRBV19*01 TRBJ2-1*01 CDR3: CASRSQLAVLNEQFF	recognises	–	–	–
w830 clonotype 5 (TCR) alpha TRAV12-1*01 TRAJ43*01 CDR3: CVVNANDMRF beta TRBV10-3*01 TRBJ2-2*01 CDR3: CAIRARDQNTGELFF	recognises	–	recognises	–
w678 clonotype 3 (TCR) alpha TRAV12-1*01 TRAJ45*01 CDR3: CVVATYSGGGADGLTF beta TRBV19*01 TRBJ2-1*01 CDR3: CASSIIAGSSYNEQFF	–	0.022 ng/mL and 0.013 ng/mL	–	EC50 of tLTAg plasmid DNA [4]: 1000 ng/mL
w876 clonotype 14 (TCR) alpha TRAV12-1*01 TRAJ27*01 CDR3: CVVPSAGKSTF beta TRBV2*03 TRBJ2-5*01 CDR3: CASSEFAGQETQYF	–	–	–	EC50 of tLTAg plasmid DNA [4]: 5400 ng/mL
w678 clonotype 2 (TCR) alpha TRAV38-1*01 TRAJ43*01 CDR3: CAFRVSHDMRF beta TRBV19*01 TRBJ2-1*01 CDR3: CASSIIAGSSYNEQFF	recognises	0.017 ng/mL and 0.012 ng/mL	–	–

Molecule	binding result [1]	EC50 of peptide [2]	binding result [3]	further results
w876 clonotype 9 (TCR) alpha TRAV12-1*01 TRAJ43*01 CDR3: CVGNNNDMRF beta TRBV10-3*01 TRBJ2-2*01 CDR3: CAISARDQNTGELFF	recognises	0.12 ng/mL and 0.24 ng/mL	recognises	–
w876 clonotype 2 (TCR) alpha TRAV12-1*01 TRAJ45*01 CDR3: CVVTEYSGGGADGLTF beta TRBV10-3*01 TRBJ2-2*01 CDR3: CASRGQNTGELFF	recognises	1.2 ng/mL	recognises	–
w876 clonotype 12 (TCR) alpha TRAV3*01 TRAJ40*01 CDR3: CAVRDNSGTYKYIF beta TRBV7-2*04 TRBJ2-3*01 CDR3: CASSLAGLAGTDTQYF	recognises	–	–	–
w876 clonotype 4 (TCR) alpha TRAV12-1*01 TRAJ45*01 CDR3: CVVYTGYSGGGADGLTF beta TRBV10-2*01 TRBJ2-2*01 CDR3: CASSVLNTGELFF	–	0.31 ng/mL	–	EC50 of tLTAg plasmid DNA [4]: 14000 ng/mL
w830 clonotype 2 (TCR) alpha TRAV38-1*01 TRAJ27*01 CDR3: CALTSGSRLTF beta TRBV19*01 TRBJ1-5*01 CDR3: CASSIMLYSNQPQHF	–	–	–	EC50 of tLTAg plasmid DNA [4]: 140000 ng/mL
w876 clonotype 11 (TCR) alpha TRAV12-1*01 TRAJ45*01 CDR3: CVVYTGYSGGGADGLTF beta TRBV10-3*01 TRBJ2-2*01 CDR3: CAIHEGDSNTGELFF	recognises	–	recognises	–
w876 clonotype 6 (TCR) alpha TRAV12-1*01 TRAJ3*01 CDR3: CVVPLYSSASKIIF beta TRBV6-1*01 TRBJ1-1*01 CDR3: CASSDTPDLNTEAFF	recognises	0.015 ng/mL and 0.035 ng/mL	recognises	–
w876 clonotype 16 (TCR) alpha TRAV38-1*01 TRAJ23*01 CDR3: CAYNQGGKLIF beta TRBV19*01 TRBJ2-1*01 CDR3: CASSTLSGTHNEQFF	recognises	0.12 ng/mL	recognises	–
w876 clonotype 26 (TCR) alpha TRAV12-1*01 TRAJ45*01 CDR3: CVVYTGYSGGGADGLTF beta TRBV13*02 TRBJ2-1*01 CDR3: CASSSGTSGGLNYNEQFF	recognises	–	–	–
w876 clonotype 1 (TCR) alpha TRAV12-1*01 TRAJ45*01 CDR3: CVVGEYSGGGADGLTF beta TRBV28*01 TRBJ2-1*01 CDR3: CAIRAGASYNEQFF	–	0.31 ng/mL	–	EC50 of tLTAg plasmid DNA [4]: 5600 ng/mL
w876 clonotype 8 (TCR) alpha TRAV12-1*01 TRAJ3*01 CDR3: CVVYASKIIF beta TRBV6-1*01 TRBJ1-1*01 CDR3: CASSDTPDLNTEAFF	–	–	–	EC50 of tLTAg plasmid DNA [4]: 4200 ng/mL
w876 clonotype 23 (TCR) alpha TRAV12-3*01 TRAJ57*01 CDR3: CAMSVAQGGSEKLVF beta TRBV6-6*01 TRBJ2-7*01 CDR3: CASSYQIGLSYEQYF	recognises	–	–	–
w876 clonotype 21 (TCR) alpha TRAV3*01 TRAJ40*01 CDR3: CAVRDNSGTYKYIF beta TRBV13*02 TRBJ2-1*01 CDR3: CASSSGTSGGLTYNEQFF	recognises	–	–	–
w830 clonotype 4 (TCR) alpha TRAV12-1*01 TRAJ43*01 CDR3: CVLNNNDMRF beta TRBV19*01 TRBJ1-5*01 CDR3: CASSILGASNQPQHF	recognises	1.1 ng/mL	recognises	–
MCC1 (TCR, V domains shown) Valpha: RKEVEQDPGPFNVPEGATVAFNCTYSNSASQSFFWYRQDCRKEPKLLMSVYSSGNEDGRFTAQLNRASQYISLLIRDSKLSDSATYLCVVATYSGGGADGLTFGKGTHLIIQP Vbeta: DAGITQSPRYKITETGRQVTLMCHQTWSHSYMFWYRQDLGHGLRLIYYSAAADITDKGEVPDGYVVSRSKTENFPLTLESATRSQTSVYFCASSSGNPSTDTQYFGPGTRLTVL	recognises	0.0094 ng/mL and 0.028 ng/mL	recognises	–
w683 clonotype 2 (TCR) alpha TRAV12-1*01 TRAJ43*01 CDR3: CVLNNNDMRF beta TRBV6-5*01 TRBJ1-2*01 CDR3: CASRSQNYYGYTF	recognises	0.21 ng/mL	recognises	–
w876 clonotype 3 (TCR) alpha TRAV19*01 TRAJ40*01 CDR3: CALGGGTFTSGTYKYIF beta TRBV9*02 TRBJ2-2*01 CDR3: CASSVEDYTGELFF	–	0.12 ng/mL	–	EC50 of tLTAg plasmid DNA [4]: 11000 ng/mL
w876 clonotype 17 (TCR) alpha TRAV12-1*01 TRAJ37*02 CDR3: CVVYGSSNTGKLIF beta TRBV7-2*04 TRBJ2-1*01 CDR3: CASSLAGLANNEQFF	recognises	–	–	–
w683 clonotype 1 (TCR) alpha TRAV12-1*01 TRAJ45*01 CDR3: CVVALYSGGGADGLTF beta TRBV6-5*01 TRBJ1-2*01 CDR3: CASRSQNYYGYTF	recognises	–	recognises	–
